Key:
[1] = target: T1, hCD33 and hCD123 immobilized simultaneously on one switchSENSE chip (ratio 2:1, CD33:CD123) (human, UniProt P20138 18-259; P26951 19-305, limits assumed); test: switchSENSE, CD33 and CD123 on one chip; fast phase (affinity); fast phase (affinity)
T1 construct: Not a complex: two separate ligands on one surface; used for avidity values and for off-rates; also called both ligands; both targets attached to the surface of the chip
Description: (§1) The designed ankyrin repeat proteins: DARPin® protein #20, DARPin® protein #21, DARPin® protein #22, DARPin® protein #27, DARPin® protein #40 and DARPin® protein #41 were tested in a concentration of 0.16 and 64 nM (in a buffer PE140 containing 10 mM Na2HPO4/NaH2PO4, 140 mM NaCl, 0.05% Tween20, 50 μM EDTA, 50 μM EGTA) for binding against two ligands hCD33 and hCD123, which both were immobilized simultaneously to DNA nanolevers, on the surface, at a pre-defined ratio (2:1, CD33:CD123) and 10% density (100:50) on an ADP-48-1-0 chip, where 100% density 1000 receptors/μm2 (preincubated R1-B48-CD123 and G1-A48-CD33 (100 nM) diluted in cNL-48 (dark)). Briefly the following steps were performed: [0724] Conjugation. Amine coupling of the two ligands (CD33 and CD123) to the DNA nanolever (A48, B48, respectively) and purification of the conjugates using the proFIRE® solution (Dynamic Biosensors GmbH) at 25° C. [0725] Evaluation of all the combined affinity and avidity of all different proteins to both ligands attached on the surface of an ADP chip using a DRX+ instrument (dynamic BIOSENSORS). [0726] Statistical analysis (repeatability from 2 to 5 times) including regeneration of the chip surface every concentration analyzed and long dissociation times and data were fitted using a bi-exponential global fit.

human serum albumin = target: T2, human serum albumin (human, UniProt P02768 25-609); test: SPR (ProteOn XPR36), target on GLC chip
T2 construct: also called HSA; SA
T2 sequence (P02768 25-609 limits assumed): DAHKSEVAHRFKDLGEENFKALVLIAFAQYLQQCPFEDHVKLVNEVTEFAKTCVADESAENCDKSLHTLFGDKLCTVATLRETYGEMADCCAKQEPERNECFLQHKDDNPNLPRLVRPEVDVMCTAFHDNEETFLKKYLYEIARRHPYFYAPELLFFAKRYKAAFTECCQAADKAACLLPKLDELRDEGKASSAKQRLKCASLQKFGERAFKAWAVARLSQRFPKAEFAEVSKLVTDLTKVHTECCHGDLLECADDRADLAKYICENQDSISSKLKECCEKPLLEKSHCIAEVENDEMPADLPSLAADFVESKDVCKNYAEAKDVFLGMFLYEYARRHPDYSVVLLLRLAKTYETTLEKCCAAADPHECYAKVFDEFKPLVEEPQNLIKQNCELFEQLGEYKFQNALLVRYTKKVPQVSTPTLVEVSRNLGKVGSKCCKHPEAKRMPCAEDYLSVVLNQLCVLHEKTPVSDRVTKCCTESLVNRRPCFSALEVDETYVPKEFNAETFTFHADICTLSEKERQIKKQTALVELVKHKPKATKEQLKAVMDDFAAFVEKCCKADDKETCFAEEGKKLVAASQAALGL

[2] = target: T3, extracellular domain of human CD70 (SEQ ID NO: 89), hCD70-Fc-trimer, ACRO Biosystems (human, UniProt P32970 52-193, chemically biotinylated where the biotinylated form was used); test: SPR (ProteOn XPR36), target on GLC chip
T3 construct: also called human CD70-Fc-trimer; Bio.CD70
T3 sequence: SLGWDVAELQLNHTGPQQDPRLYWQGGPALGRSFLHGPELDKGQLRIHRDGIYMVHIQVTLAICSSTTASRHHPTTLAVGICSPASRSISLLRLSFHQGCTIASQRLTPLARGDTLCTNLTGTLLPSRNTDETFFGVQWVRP

[3] = target: T4, hCD33 (recombinant, construct not stated) (human, UniProt P20138 18-259, limits assumed); test: switchSENSE; KD,1 (affinity)
T4 construct: also called CD33 (Ligand 1)
T4 sequence (P20138 18-259 limits assumed): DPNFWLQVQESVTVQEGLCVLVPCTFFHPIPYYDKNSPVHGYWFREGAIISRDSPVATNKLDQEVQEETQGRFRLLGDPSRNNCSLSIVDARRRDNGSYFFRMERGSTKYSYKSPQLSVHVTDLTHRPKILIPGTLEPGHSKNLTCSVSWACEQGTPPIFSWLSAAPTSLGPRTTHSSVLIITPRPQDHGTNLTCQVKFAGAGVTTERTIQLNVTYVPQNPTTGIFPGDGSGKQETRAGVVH
Description: as §1

[4] = target: T5, hCD123 (recombinant, construct not stated) (human, UniProt P26951 19-305, limits assumed); test: switchSENSE; KD,1 (affinity)
T5 construct: also called CD123 (Ligand 2)
T5 sequence (looked up): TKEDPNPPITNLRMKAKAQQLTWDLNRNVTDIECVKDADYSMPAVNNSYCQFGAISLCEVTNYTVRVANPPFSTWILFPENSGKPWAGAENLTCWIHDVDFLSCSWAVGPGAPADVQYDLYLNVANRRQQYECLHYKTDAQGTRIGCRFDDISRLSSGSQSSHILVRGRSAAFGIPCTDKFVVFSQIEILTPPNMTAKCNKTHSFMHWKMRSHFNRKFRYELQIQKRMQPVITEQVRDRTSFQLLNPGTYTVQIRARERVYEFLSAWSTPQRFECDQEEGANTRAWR
Description: as §1

[5] = target: T1, hCD33 and hCD123 immobilized …; test: switchSENSE; KD,2 against KD,1
Description: as §1

[6] = target: T1, hCD33 and hCD123 immobilized …; test: switchSENSE, hCD33 and hCD123 co-immobilised 2:1; panel headed CD33, column KD2 (avidity, simultaneous binding of CD33 and CD123 per paragraph 696)
Description: as §1

koff [1]: ~0.01 s⁻¹
Kd [3]: ~20 nM
Kd [4]: ~4.5 nM
fold lower KD,2 (avidity) than the measured affinity [5]: ≥ 14 fold
Kd [6]: 0.17 nM
B1: DARPin® protein #27 (designed binder)
chain: DLGKKLLEAALEGQLDEVRELLKAGADVNAKDQEGYTPLHLAAALGHLEIVEVLLKAGADVNAKDSIGRTPLHLAAYKGHLEIVEVLLKAGADVNAQDLLGETPADLAAEQGHQDIAEVLQKAAGSPTPTPTTPTPTPTTPTPTPTGSDLGVKLLLAASRGQLDEVRILLKAGADVNAKDIDEGYTPLHIAAYYGHLEIVEVLLKAGADVNAKDRYGKTPLHLAAISGHLEIVEVLLKAGADVNAQDDKGDTPADLAADYGHQDIAEVLQKAAGSPTPTPTTPTPTPTTPTPTPTGSDLGQKLLEAAWAGQDDEVRELLKAGADVNAKNSRGWTPLHTAAQTGHLEIFEVLLKAGADVNAKDDKGVTPLHLAAALGHLEIVEVLLKAGADVNAQDSWGTTPADLAAKYGHEDIAEVLQKAA
notes: CD123-CD33-CD3; also called αCD123-aCD33-αCD3_1; not shown: N-terminal His-tag
binding result (human serum albumin): no binding (tested: 100 nM (highest concentration))
binding result [2]: no binding (tested: 100 nM (highest concentration))

From US20240254229A1 (Molecular Partners, published 2024)
